The source of these data is publication PMC8131196, “Structure and dynamics of a mycobacterial type VII secretion system” (Nature, 2021).

For orientation: stoichiometry N means the number of molecules, sites or subunits per partner or assembly.

Common to all, as to assay: cryo-EM structure
One series addresses T1, EccB5 (M. tuberculosis H37Rv, UniProt P9WNQ9 1-506).
T1 construct: also called inner EccB5; outer EccB5
T1 sequence: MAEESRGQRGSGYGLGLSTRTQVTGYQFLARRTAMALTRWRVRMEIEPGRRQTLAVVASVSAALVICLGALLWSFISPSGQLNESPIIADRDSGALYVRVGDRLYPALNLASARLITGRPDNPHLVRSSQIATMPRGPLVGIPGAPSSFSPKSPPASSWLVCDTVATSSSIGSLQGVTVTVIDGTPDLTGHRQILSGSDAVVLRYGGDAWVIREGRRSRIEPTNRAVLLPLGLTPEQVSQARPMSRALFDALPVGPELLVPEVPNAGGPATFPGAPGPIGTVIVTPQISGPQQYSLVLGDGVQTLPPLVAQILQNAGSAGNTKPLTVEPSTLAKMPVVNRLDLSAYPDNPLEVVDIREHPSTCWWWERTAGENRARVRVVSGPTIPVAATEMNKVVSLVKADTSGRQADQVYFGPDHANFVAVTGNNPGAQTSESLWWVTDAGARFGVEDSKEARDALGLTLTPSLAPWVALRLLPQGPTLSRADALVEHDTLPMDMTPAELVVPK
The settings on record: both partners purified.

The target in a further series is T2, EccC5 (M. tuberculosis H37Rv, UniProt P9WNA5 1-1391).
T2 construct: also called EccC5 ATPase; not shown: TwinStrep, C-terminal, kept
T2 sequence: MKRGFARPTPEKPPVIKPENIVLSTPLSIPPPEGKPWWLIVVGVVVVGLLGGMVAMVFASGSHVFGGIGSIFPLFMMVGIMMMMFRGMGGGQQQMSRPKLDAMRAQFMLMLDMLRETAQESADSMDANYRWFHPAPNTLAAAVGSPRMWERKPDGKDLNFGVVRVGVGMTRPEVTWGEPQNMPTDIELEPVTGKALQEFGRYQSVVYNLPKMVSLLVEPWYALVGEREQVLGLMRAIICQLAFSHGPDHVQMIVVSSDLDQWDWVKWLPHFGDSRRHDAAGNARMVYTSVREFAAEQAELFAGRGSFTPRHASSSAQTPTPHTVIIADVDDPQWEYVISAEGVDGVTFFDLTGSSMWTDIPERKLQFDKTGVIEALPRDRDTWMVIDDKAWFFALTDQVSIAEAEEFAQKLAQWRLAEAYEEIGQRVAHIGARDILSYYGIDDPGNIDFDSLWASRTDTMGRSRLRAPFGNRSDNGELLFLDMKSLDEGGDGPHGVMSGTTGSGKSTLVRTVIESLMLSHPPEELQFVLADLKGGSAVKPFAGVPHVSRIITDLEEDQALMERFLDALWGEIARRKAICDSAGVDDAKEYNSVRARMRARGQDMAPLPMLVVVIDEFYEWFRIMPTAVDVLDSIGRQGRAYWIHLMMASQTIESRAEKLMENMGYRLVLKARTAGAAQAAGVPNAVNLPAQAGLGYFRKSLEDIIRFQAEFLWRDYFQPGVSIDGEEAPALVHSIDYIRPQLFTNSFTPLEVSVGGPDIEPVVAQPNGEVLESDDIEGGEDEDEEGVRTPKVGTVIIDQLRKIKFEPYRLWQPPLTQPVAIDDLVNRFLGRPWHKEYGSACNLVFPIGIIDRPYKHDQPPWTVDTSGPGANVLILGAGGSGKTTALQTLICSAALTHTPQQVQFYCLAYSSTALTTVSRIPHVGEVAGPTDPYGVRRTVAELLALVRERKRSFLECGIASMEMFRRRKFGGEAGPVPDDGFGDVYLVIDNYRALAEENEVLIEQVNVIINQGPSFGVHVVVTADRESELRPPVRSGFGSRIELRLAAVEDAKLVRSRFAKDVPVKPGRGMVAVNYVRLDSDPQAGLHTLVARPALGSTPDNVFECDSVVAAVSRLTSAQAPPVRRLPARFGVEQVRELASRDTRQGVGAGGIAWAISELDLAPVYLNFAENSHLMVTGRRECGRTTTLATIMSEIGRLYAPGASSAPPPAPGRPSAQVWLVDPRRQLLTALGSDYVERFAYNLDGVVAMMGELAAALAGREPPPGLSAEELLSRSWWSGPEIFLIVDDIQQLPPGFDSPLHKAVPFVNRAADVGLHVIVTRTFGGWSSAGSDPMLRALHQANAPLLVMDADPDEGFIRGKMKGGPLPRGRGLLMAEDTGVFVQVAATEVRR
The following applies: both partners purified.

In a further series the target is T3, MycP5 protease (M. tuberculosis H37Rv, UniProt O53945 40-585).
T3 construct: also called mycosin
T3 sequence: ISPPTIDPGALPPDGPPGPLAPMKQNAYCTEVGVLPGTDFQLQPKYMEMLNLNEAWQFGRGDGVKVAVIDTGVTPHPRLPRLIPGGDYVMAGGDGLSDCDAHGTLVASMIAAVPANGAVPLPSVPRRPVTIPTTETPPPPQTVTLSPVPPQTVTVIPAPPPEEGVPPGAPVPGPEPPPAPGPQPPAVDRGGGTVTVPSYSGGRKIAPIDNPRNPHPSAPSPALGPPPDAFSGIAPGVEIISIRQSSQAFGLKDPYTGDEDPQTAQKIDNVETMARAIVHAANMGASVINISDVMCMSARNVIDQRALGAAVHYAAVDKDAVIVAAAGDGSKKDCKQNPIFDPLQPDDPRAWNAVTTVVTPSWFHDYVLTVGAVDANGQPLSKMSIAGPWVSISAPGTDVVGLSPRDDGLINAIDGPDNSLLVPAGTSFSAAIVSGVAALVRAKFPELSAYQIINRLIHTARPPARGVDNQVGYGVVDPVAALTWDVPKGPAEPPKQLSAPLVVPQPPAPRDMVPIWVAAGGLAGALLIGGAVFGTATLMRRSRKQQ
The settings on record: both partners purified.

The series “cryo-EM structure” deals with the molecule itself.

B1: EccD5 (natural protein)
chain: MTAVADAPQADIEGVASPQAVVVGVMAGEGVQIGVLLDANAPVSVMTDPLLKVVNSRLRELGEAPLEATGRGRWALCLVDGAPLRATQSLTEQDVYDGDRLWIRFIADTERRSQVIEHISTAVASDLSKRFARIDPIVAVQVGASMVATGVVLATGVLGWWRWHHNTWLTTIYTAVIGVLVLAVAMLLLMRAKTDADRRVADIMLMSAIMPVTVAAAAAPPGPVGSPQAVLGFGVLTVAAALALRFTGRRLGIYTTIVIIGALTMLAALARMVAATSAVTLLSSLLLICVVAYHAAPALSRRLAGIRLPVFPSATSRWVFEARPDLPTTVVVSGGSAPVLEGPSSVRDVLLQAERARSFLSGLLTGLGVMVVVCMTSLCDPHTGQRWLPLILAGFTSGFLLLRGRSYVDRWQSITLAGTAVIIAAAVCVRYALELSSPLAVSIVAAILVLLPAAGMAAAAHVPHTIYSPLFRKFVEWIEYLCLMPIFPLALWLMNVYAAIRYR
notes: also called inner EccD5; outer EccD5
With B1, the binding result with EccB5, with EccC5 and in the series with MycP5 protease was “binds” in each case. Further, in the series “cryo-EM structure”, the “stoichiometry N” value came to 2.
